# Values quoted from earlier work, collected in publication PMC4225561.
# Biological target: Myo4p 27-residue fragment (Saccharomyces cerevisiae) (UniProt P32492)
# Test: pull-down
# Sequence of UniProt P32492 (P32492 528-554): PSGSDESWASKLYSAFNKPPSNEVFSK
substance,measurement,value
She4p (from UniProt P51534),Kd,1 µM
